Reference: patent US20240091361A1, “T CELL RECEPTORS TARGETING RAS MUTATIONS AND USES THEREOF” (MEMORIAL SLOAN-KETTERING CANCER CENTER, priority 2021, published 2024)

T1: KRAS wild type (10-mer) peptide on HLA-A*11:01 (human)
T1 peptide: VVVGAGGVGK

T2: GEM (also listed as SEQ ID NOs 82, 106, 130, 141) peptide on HLA-A*11:01 (human)
T2 peptide: AVFGAGGVGK

T3: KRAS G12D (10-mer; the same sequence in NRAS G12D and HRAS G12D) peptide on HLA-A*11:01 (human)
T3 peptide: VVVGADGVGK

B1: TCR 1: T cell receptor targeting RAS G12D peptide; α chain SEQ ID NO: 12, β chain SEQ ID NO: 13 (protein, listed as Homo sapiens)
alpha: MNYSPGLVSLILLLLGRTRGDSVTQMEGPVTLSEEAFLTINCTYTATGYPSLFWYVQYPGEGLQLLLKATKADDKGSNKGFEATYRKETTSFHLEKGSVQVSDSAVYFCALSDRVGGARLMFGDGTQLVVKPNIQNPDPAVYQLRDSKSSDKSVCLFTDFDSQTNVSQSKDSDVYITDKTVLDMRSMDFKSNSAVAWSNKSDFACANAFNNSIIPEDTFFPSPESSCDVKLVEKSFETDTNLNFQNLSVIGFRILLLKVAGFNLLMTLRLWSS
beta: MTIRLLCYMGFYFLGAGLMEADIYQTPRYLVIGTGKKITLECSQTMGHDKMYWYQQDPGMELHLIHYSYGVNSTEKGDLSSESTVSRIRTEHFPLTLESARPSHTSQYLCASSEGLYNEQFFGPGTRLTVLEDLKNVFPPEVAVFEPSEAEISHTQKATLVCLATGFYPDHVELSWWVNGKEVHSGVSTDPQPLKEQPALNDSRYCLSSRLRVSATFWQNPRNHFRCQVQFYGLSENDEWTQDRAKPVTQIVSAEAWGRADCGFTSESYQQGVLSATILYEILLGKATLYAVLVSALVLMAMVKRKDSRG
modifications: Description of sequence: Full alpha-chain; Description of sequence: Full beta-chain
B2: TCR 4: T cell receptor targeting RAS G12D peptide; α chain SEQ ID NO: 41, β chain SEQ ID NO: 42 (protein, listed as Homo sapiens)
alpha: MMKSLRVLLVILWLQLSWVWSQQKEVEQDPGPLSVPEGAIVSLNCTYSNSAFQYFMWYRQYSRKGPELLMYTYSSGNKEDGRFTAQVDKSSKYISLFIRDSQPSDSATYLCAMGALNSGAGSYQLTFGKGTKLSVIPNIQNPDPAVYQLRDSKSSDKSVCLFTDFDSQTNVSQSKDSDVYITDKTVLDMRSMDFKSNSAVAWSNKSDFACANAFNNSIIPEDTFFPSPESSCDVKLVEKSFETDTNLNFQNLSVIGFRILLLKVAGFNLLMTLRLWSS
beta: MGSRLLCWVLLCLLGAGPVKAGVTQTPRYLIKTRGQQVTLSCSPISGHRSVSWYQQTPGQGLQFLFEYFSETQRNKGNFPGRFSGRQFSNSRSEMNVSTLELGDSALYLCASSLSSGTGTEAFFGQGTRLTVVEDLNKVFPPEVAVFEPSEAEISHTQKATLVCLATGFFPDHVELSWWVNGKEVHSGVSTDPQPLKEQPALNDSRYCLSSRLRVSATFWQNPRNHFRCQVQFYGLSENDEWTQDRAKPVTQIVSAEAWGRADCGFTSVSYQQGVLSATILYEILLGKATLYAVLVSALVLMAMVKRKDF
modifications: Description of sequence: Full alpha-chain; Description of sequence: Full beta-chain
B3: TCR 3: T cell receptor targeting RAS G12D peptide; α chain SEQ ID NO: 31, β chain SEQ ID NO: 32 (protein, listed as Homo sapiens)
alpha: MACPGFLWALVISTCLEFSMAQTVTQSQPEMSVQEAETVTLSCTYDTSESDYYLFWYKQPPSRQMILVIRQEAYKQQNATENRFSVNFQKAAKSFSLKISDSQLGDAAMYFCAYRSDGGATNKLIFGTGTLLAVQPNIQNPDPAVYQLRDSKSSDKSVCLFTDFDSQTNVSQSKDSDVYITDKTVLDMRSMDFKSNSAVAWSNKSDFACANAFNNSIIPEDTFFPSPESSCDVKLVEKSFETDTNLNFQNLSVIGFRILLLKVAGFNLLMTLRLWSS
beta: MGPQLLGYVVLCLLGAGPLEAQVTQNPRYLITVTGKKLTVTCSQNMNHEYMSWYRQDPGLGLRQIYYSMNVEVTDKGDVPEGYKVSRKEKRNFPLILESPSPNQTSLYFCASSLGAGGYNSPLHFGNGTRLTVTEDLNKVFPPEVAVFEPSEAEISHTQKATLVCLATGFFPDHVELSWWVNGKEVHSGVSTDPQPLKEQPALNDSRYCLSSRLRVSATFWQNPRNHFRCQVQFYGLSENDEWTQDRAKPVTQIVSAEAWGRADCGFTSVSYQQGVLSATILYEILLGKATLYAVLVSALVLMAMVKRKDF
modifications: Description of sequence: Full alpha-chain; Description of sequence: Full beta-chain
B4: TCR 5: T cell receptor targeting RAS G12D peptide; α chain SEQ ID NO: 50, β chain SEQ ID NO: 51 (protein, listed as Homo sapiens)
alpha: MKTFAGFSFLFLWLQLDCMSRGEDVEQSLFLSVREGDSSVINCTYTDSSSTYLYWYKQEPGAGLQLLTYIFSNMDMKQDQRLTVLLNKKDKHLSLRIADTQTGDSAIYFCAERDAGNNRKLIWGLGTSLAVNPNIQNPDPAVYQLRDSKSSDKSVCLFTDFDSQTNVSQSKDSDVYITDKTVLDMRSMDFKSNSAVAWSNKSDFACANAFNNSIIPEDTFFPSPESSCDVKLVEKSFETDTNLNFQNLSVIGFRILLLKVAGFNLLMTLRLWSS
beta: MGTRLLCWVVLGFLGTDHTGAGVSQSPRYKVAKRGQDVALRCDPISGHVSLFWYQQALGQGPEFLTYFQNEAQLDKSGLPSDRFFAERPEGSVSTLKIQRTQQEDSAVYLCASSLEGGDTQYFGPGTRLTVLEDLKNVFPPEVAVFEPSEAEISHTQKATLVCLATGFYPDHVELSWWVNGKEVHSGVSTDPQPLKEQPALNDSRYCLSSRLRVSATFWQNPRNHFRCQVQFYGLSENDEWTQDRAKPVTQIVSAEAWGRADCGFTSESYQQGVLSATILYEILLGKATLYAVLVSALVLMAMVKRKDSRG
modifications: Description of sequence: Full alpha-chain; Description of sequence: Full beta-chain
B5: TCR 2: T cell receptor targeting RAS G12D peptide; α chain SEQ ID NO: 22, β chain SEQ ID NO: 23 (protein, listed as Homo sapiens)
alpha: MTRVSLLWAVVVSTCLESGMAQTVTQSQPEMSVQEAETVTLSCTYDTSENNYYLFWYKQPPSRQMILVIRQEAYKQQNATENRFSVNFQKAAKSFSLKISDSQLGDTAMYFCAFMYPSQGGSEKLVFGKGMKLTVNPNIQNPDPAVYQLRDSKSSDKSVCLFTDFDSQTNVSQSKDSDVYITDKTVLDMRSMDFKSNSAVAWSNKSDFACANAFNNSIIPEDTFFPSPESSCDVKLVEKSFETDTNLNFQNLSVIGFRILLLKVAGFNLLMTLRLWSS
beta: MGPGLLCWVLLCLLGAGSVETGVTQSPTHLIKTRGQQVTLRCSSQSGHNTVSWYQQALGQGPQFIFQYYREEENGRGNFPPRFSGLQFPNYSSELNVNALELDDSALYLCASSSPGFRSYGYTFGSGTRLTVVEDLNKVFPPEVAVFEPSEAEISHTQKATLVCLATGFFPDHVELSWWVNGKEVHSGVSTDPQPLKEQPALNDSRYCLSSRLRVSATFWQNPRNHFRCQVQFYGLSENDEWTQDRAKPVTQIVSAEAWGRADCGFTSVSYQQGVLSATILYEILLGKATLYAVLVSALVLMAMVKRKDF
modifications: Description of sequence: Full alpha-chain; Description of sequence: Full beta-chain
B6: TCR 1 (TCR, V domains shown)
Valpha: GDSVTQMEGPVTLSEEAFLTINCTYTATGYPSLFWYVQYPGEGLQLLLKATKADDKGSNKGFEATYRKETTSFHLEKGSVQVSDSAVYFCALSDRVGGARLMFGDGTQLVVKP
Vbeta: EADIYQTPRYLVIGTGKKITLECSQTMGHDKMYWYQQDPGMELHLIHYSYGVNSTEKGDLSSESTVSRIRTEHFPLTLESARPSHTSQYLCASSEGLYNEQFFGPGTRLTVL

Legend:
[1] = target: T4, peptide-pulsed HLA-A*11:01+ COS-7 target cells (Homo sapiens, UniProt P04439, A114D/D185E/E176A/F33Y/L180Q/S129P/T187R); experiment: Cross-reactivity: IFN-γ ELISA after coculture of RAS TCR-T cells with peptide-pulsed HLA-A*11:01+ COS-7 cells; format: cell-based; details: peptides of Tables 7-11 at 1 μM, E:T 1:1, 24 h; background threshold 50 pg/mL
T4 construct: Target COS-7 cells were electroporated with mRNA encoding full-length human HLA*11:01; expressed in transfected cells; host or cells: COS-7 cells electroporated with mRNA
Experimental: Next, studies were conducted to determine the cross-reactivity potential of RAS-specific TCRs. Individual TCR peptide motifs were scanned against the human proteome to identify potential cross-reactive sequences. Target COS-7 cells were electroporated with mRNA encoding full-length human HLA*11:01 and incubated at 37 degrees overnight to allow HLA-A*11:01 protein expression. […]. The cells were then pulsed with an individual peptide corresponding to its RAS-specific TCR (see Tables 7-11) at a concentration of 1 μM; finally, wild-type (WT) and mutated RAS peptides were included as functional controls. RAS TCR-T cells, expressing individual RAS TCRs 1-5, were added at an E:T ratio of 1:1 and incubated at 37 degrees for 24 h. Supernatants were harvested from coculture wells to perform an ELISA assay to determine levels of IFN-γ production.

[2] = target: T1, KRAS wild type (10-mer) peptide on …; experiment: cytokine release
[3] = target: T2, GEM (also listed as SEQ ID NOs 82, 106, …); experiment: cytokine release
[4] = target: T3, KRAS G12D (10-mer; the same sequence in …); experiment: multimer staining

Molecule | reactivity (IFN-γ) to alternative human peptide sequences possessing the recognition motif [1] | other results
B1 | did not exhibit reactivity | 
B2 | did not exhibit reactivity | 
B3 | low level reactivity to a single alternative peptide | 
B4 | did not exhibit reactivity | 
B5 | did not exhibit reactivity | 
B6 |  | binding result [2]: no recognition; binding result [3]: no recognition; binding result [4]: recognises
